Source: patent US20170291958

Target: Flag-KRAS

B1: Flag-PIASγ (protein)
chain: MAAELVEAKNMVMSFRVSDLQMLLGFVGRSKSGLKHELVTRALQLVQFDCSPELFKKIKELYETRYAKKNSEPAPQPHRPLDPLTMHSTYDRAGAVPRTPLAGPNIDYPVLYGKYLNGLGRLPAKTLKPEVRLVKLPFFNMLDELLKPTELVPQNNEKLQESPCIFALTPRQVELIRNSRELQPGVKAVQVVLRICYSDTSCPQEDQYPPNIAVKVNHSYCSVPGYYPSNKPGVEPKRPCRPINLTHLMYLSSATNRITVTWGNYGKSYSVALYLVRQLTSSELLQRLKTIGVKHPELCKALVKEKLRLDPDSEIATTGVRVSLICPLVKMRLSVPCRAETCAHLQCFDAVFYLQMNEKKPTWMCPVCDKPAPYDQLIIDGLLSKILSECEDADEIEYLVDGSWCPIRAEKERSCSPQGAILVLGPSDANGLLPAPSVNGSGALGSTGGGGPVGSMENGKPGADVVDLTLDSSSSSEDEEEEEEEEEDEDEEGPRPKRRCPFQKGLVPAC
  KRAS sumoylation (HA-SUMO3 blot of Flag immunoprecipitates): Expression of PIASγ enhanced KRAS sumoylation, which was further stimulated by expression of UBC9 (FIG. 3D)
